From patent publication US20250179205A1 (Hoffmann-La Roche, published 2025)
Changes are numbered by the printed parent chain. Values belong to the binder of their own block, whether it stands above or below them.

Legend:
[1] = target: T1, His-tagged human dimeric FAP (recombinant FAP_ECD) (human, UniProt Q12884 27-760); assay: SPR (Biacore T200), His-tagged dimeric huFAP ECD captured by anti-His, antibody as analyte, 1:1 fit (avidity)
T1 construct: also called hu FAP ectodomain + poly-lys-tag + his6-tag
Procedure: The capacity of the bispecific constructs to bind human FAP was assessed by surface plasmon resonance (SPR). All SPR experiments were performed on a BIACORE® T200 (BIACORE®) at 25° C. with HBS-EP as running buffer (0.01 M HEPES pH 7.4, 0.15 M NaCl, 3 mM EDTA, 0.005% Surfactant P20, (BIACORE®).
His-tagged human dimeric FAP (recombinant FAP_ECD) was captured on a CM5 chip (GE Healthcare) immobilized with anti-His antibody (Qiagen Cat. No. 34660) by injection of 500 nM huFAP for 60 s at a flow rate of 10 uL/min, 10 nM murine FAP for 20 s at a flow rate of 20 uL/min and 10 nM cynoFAP for 20 s at a flow rate of 20 uL/min. Immobilization levels for the anti-His antibody of up to 18000 resonance units (RU) were used. Following the capture step, the bispecific antibodies as well as control molecules were immediately passed over the chip surface at a concentration ranging from 0.78-100 nM with a flow rate of […] for 280 s and a dissociation phase of 180 s. Bulk refractive index differences were corrected for by subtracting the response obtained in a reference flow cell, where no FAP was immobilized. Avidity was determined using the Langmuir 1:1 curve fitting. For bivalent binding the same 1:1 fitting was used leading to an apparent KD value.

[2] = target: T2, human fibroblast activation protein (huFAP) (human, UniProt Q12884 1-760); assay: flow cytometry, NIH/3T3-huFAP clone 19 cells, PE anti-human Fc F(ab')2
T2 construct: expressed on transfected NIH/3T3-huFAP clone 19 cells; also called human FAP
Procedure: (§1) NIH/3T3-huFAP clone 19 and NIH/3T3-mFAP clone 26 were generated by the transfection of the mouse embryonic fibroblast NIH/3T3 cell line (ATCC CRL-1658) with the expression vector pETR4921 to express under 1.5 μg/mL Puromycin selection huFAP or mFAP, respectively.
(§2) NIH/3T3-huFAP, NIH/3T3-mFAP or NIH/3T3-wt cells were cultured with 1× Dulbecco's Modified Eagle's Medium (DMEM) (Gibco, Cat. No. 42430-025) supplemented with 10% Fetal Bovine Serum (FBS) (life technologies, Cat. No. 16140, Lot No. 1797306A). For the NIH/3T3-huFAP and NIH/3T3-mFAP cells 1.5 μg/mL Puromycin (Gibco, Cat. No. A11138-03) was added to the medium for selection of FAP-expressing cells. NIH/3T3 cells were removed from the plate by using enzyme-free Cell Dissociation Buffer (Gibco, Cat. No. 13151014). 0.3×10⁵ NIH/3T3-huFAP clone 19, NIH/3T3-mFAP clone 26 or NIH/3T3-wt were added in 200 μl of 1×DMEM 10% FBS to each well of a round-bottom 96-well plate (Greiner Bio-One, CELLSTAR®, Cat. No. 650185). Plates were centrifuged 5 minutes at 1700 rpm and supernatants were flicked off. Cells were washed once with 200 μL of 4° C. cold FACS buffer (eBioscience, Cat. No. 00-4222-26). All samples were resuspended in 50 μL/well of 4° C. cold FACS buffer containing the bispecific antigen binding molecules (primary antibody) or isotype control antibody DP47 at the indicated range of concentrations (in duplicates) and incubated for 120 minutes at 4° C. Afterwards the cells were washed three times with 200 μL 4° C. cold FACS buffer. Cells were further stained with 25 μL/well of 4° C. cold secondary antibody solution (1:50 dilution of secondary antibody) containing R-Phycoerythrin (PE) conjugated AffiniPure F(ab′)₂ Fragment Goat Anti-Human IgG, Fcγ Fragment Specific (Jackson ImmunoResearch, Cat. No. 109-116-098) and incubated for 60 minutes at 4° C. in the dark. Cells were washed with 200 μl FACS buffer and resuspended in 85 μL/well FACS-buffer containing 0.2 μg/mL DAPI (Roche, Cat. No. 10236276001) and acquired the same day using 5-laser LSR-Fortessa (BD Bioscience with DIVA software). Data analysis was performed using the FlowJo version 10 software (FlowJo LLC).

[3] = target: T3, mouse fibroblast activation protein (mFAP) (mouse, UniProt P97321 1-761); assay: flow cytometry on NIH/3T3-mFAP cells (3T3_mFAP), PE-labelled anti-human IgG Fcgamma F(ab')2 secondary, MFI baseline corrected
T3 construct: expressed on transfected NIH/3T3-mFAP clone 26 cells; also called murine FAP; mouse FAP
Procedure: as §1, §2

T3 sequence (P97321 whole entry): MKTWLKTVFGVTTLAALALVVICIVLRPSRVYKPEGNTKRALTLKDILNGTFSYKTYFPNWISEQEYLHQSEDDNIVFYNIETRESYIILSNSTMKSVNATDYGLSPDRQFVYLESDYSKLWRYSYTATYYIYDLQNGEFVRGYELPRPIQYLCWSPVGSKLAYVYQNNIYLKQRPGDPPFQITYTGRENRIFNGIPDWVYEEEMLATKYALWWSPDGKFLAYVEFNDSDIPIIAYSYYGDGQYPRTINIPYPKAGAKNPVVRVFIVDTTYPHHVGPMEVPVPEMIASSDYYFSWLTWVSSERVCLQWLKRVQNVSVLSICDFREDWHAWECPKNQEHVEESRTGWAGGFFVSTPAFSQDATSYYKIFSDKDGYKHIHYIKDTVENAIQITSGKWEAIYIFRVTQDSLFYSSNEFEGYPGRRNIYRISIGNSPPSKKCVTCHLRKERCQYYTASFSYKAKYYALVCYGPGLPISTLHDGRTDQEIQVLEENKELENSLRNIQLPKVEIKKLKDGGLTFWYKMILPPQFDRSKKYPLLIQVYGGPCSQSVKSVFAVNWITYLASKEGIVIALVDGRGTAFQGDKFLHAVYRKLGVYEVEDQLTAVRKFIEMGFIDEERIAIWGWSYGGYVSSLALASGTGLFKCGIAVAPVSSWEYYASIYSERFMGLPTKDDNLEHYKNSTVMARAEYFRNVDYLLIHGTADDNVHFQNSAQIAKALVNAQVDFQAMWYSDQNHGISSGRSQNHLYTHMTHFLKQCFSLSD

- Kd [1]: 2.7 nM
- koff [1]: 0.00155 s⁻¹
- kon [1]: 576000 M⁻¹ s⁻¹
B1: P1AD4520 or P1AD9139 mu CD40 (FGK4.5) × FAP (28H1) (4 + 1) (bispecific antibody, mouse IgG1, kappa)
heavy 1: EVQLVESDGGLVQPGRSLKLPCAASGFTFSDYYMAWVRQAPTKGLEWVASISYDGSSTYYRDSVKGRFTISRDNAKSTLYLQMDSLRSEDTATYYCGRHSSYFDYWGQGVMVTVSSAKTTPPSVYPLAPGSAAQTNSMVTLGCLVKGYFPEPVTVTWNSGSLSSGVHTFPAVLQSDLYTLSSSVTVPSSTWPSQTVTCNVAHPASSTKVDKKIVPRDCGGGGSGGGGSEVQLVESDGGLVQPGRSLKLPCAASGFTFSDYYMAWVRQAPTKGLEWVASISYDGSSTYYRDSVKGRFTISRDNAKSTLYLQMDSLRSEDTATYYCGRHSSYFDYWGQGVMVTVSSAKTTPPSVYPLAPGSAAQTNSMVTLGCLVKGYFPEPVTVTWNSGSLSSGVHTFPAVLQSDLYTLSSSVTVPSSTWPSQTVTCNVAHPASSTKVDKKIVPRDCGCKPCICTVPEVSSVFIFPPKPKDVLTITLTPKVTCVVVAISKDDPEVQFSWFVDDVEVHTAQTKPREEQINSTFRSVSELPIMHQDWLNGKEFKCRVNSAAFGAPIEKTISKTKGRPKAPQVYTIPPPKKQMAKDKVSLTCMITNFFPEDITVEWQWNGQPAENYKNTQPIMKTDGSYFVYSKLNVQKSNWEAGNTFTCSVLHEGLHNHHTEKSLSHSPGGGGGSGGGGSGGGGSGGGGSEVQLLESGGGLVQPGGSLRLSCAASGFTFSSHAMSWVRQAPGKGLEWVSAIWASGEQYYADSVKGRFTISRDNSKNTLYLQMNSLRAEDTAVYYCAKGWLGNFDYWGQGTLVTVSS
heavy 2: EVQLVESDGGLVQPGRSLKLPCAASGFTFSDYYMAWVRQAPTKGLEWVASISYDGSSTYYRDSVKGRFTISRDNAKSTLYLQMDSLRSEDTATYYCGRHSSYFDYWGQGVMVTVSSAKTTPPSVYPLAPGSAAQTNSMVTLGCLVKGYFPEPVTVTWNSGSLSSGVHTFPAVLQSDLYTLSSSVTVPSSTWPSQTVTCNVAHPASSTKVDKKIVPRDCGGGGSGGGGSEVQLVESDGGLVQPGRSLKLPCAASGFTFSDYYMAWVRQAPTKGLEWVASISYDGSSTYYRDSVKGRFTISRDNAKSTLYLQMDSLRSEDTATYYCGRHSSYFDYWGQGVMVTVSSAKTTPPSVYPLAPGSAAQTNSMVTLGCLVKGYFPEPVTVTWNSGSLSSGVHTFPAVLQSDLYTLSSSVTVPSSTWPSQTVTCNVAHPASSTKVDKKIVPRDCGCKPCICTVPEVSSVFIFPPKPKDVLTITLTPKVTCVVVAISKDDPEVQFSWFVDDVEVHTAQTKPREEQINSTFRSVSELPIMHQDWLNGKEFKCRVNSAAFGAPIEKTISKTKGRPKAPQVYTIPPPKEQMAKDKVSLTCMITNFFPEDITVEWQWNGQPAENYDNTQPIMDTDGSYFVYSDLNVQKSNWEAGNTFTCSVLHEGLHNHHTEKSLSHSPGGGGGSGGGGSGGGGSGGGGSEIVLTQSPGTLSLSPGERATLSCRASQSVSRSYLAWYQQKPGQAPRLLIIGASTRATGIPDRFSGSGSGTDFTLTISRLEPEDFAVYYCQQGQVIPPTFGQGTKVEIK
light: DTVLTQSPALAVSPGERVTISCRASDSVSTLMHWYQQKPGQQPKLLIYLASHLESGVPARFSGSGSGTDFTLTIDPVEADDTATYYCQQSWNDPWTFGGGTKLELKRADAAPTVSIFPPSSEQLTSGGASVVCFLNNFYPKDINVKWKIDGSERQNGVLNSWTDQDSKDSTYSMSSTLTLTKDEYERHNSYTCEATHKTSTSPIVKSFNRNEC
notes: murine surrogate, tetravalent for mouse CD40, monovalent for FAP (28H1); mouse IgG1 DAPG, DD/KK; also called 4 + 1 with C-terminal VH/VL fusion; muCD40-28H1

- EC50 [2]: 33 nM
- binding result [3]: binds
B2: P1AA9641 CD40 × FAP (28H1) (2 + 1) (bispecific antibody, human IgG1, kappa, L234A L235A)
heavy 1: EVQLVESGGGLVQPGGSLRLSCAASGYSFTGYYIHWVRQAPGKGLEWVARVIPNAGGTSYNQKFKGRFTLSVDNSKNTAYLQMNSLRAEDTAVYYCAREGIYWWGQGTLVTVSSASTKGPSVFPLAPSSKSTSGGTAALGCLVKDYFPEPVTVSWNSGALTSGVHTFPAVLQSSGLYSLSSVVTVPSSSLGTQTYICNVNHKPSNTKVDKKVEPKSCDKTHTCPPCPAPEAAGGPSVFLFPPKPKDTLMISRTPEVTCVVVDVSHEDPEVKFNWYVDGVEVHNAKTKPREEQYNSTYRVVSVLTVLHQDWLNGKEYKCKVSNKALGAPIEKTISKAKGQPREPQVCTLPPSRDELTKNQVSLSCAVKGFYPSDIAVEWESNGQPENNYKTTPPVLDSDGSFFLVSKLTVDKSRWQQGNVFSCSVMHEALHNHYTQKSLSLSPGGGGGSGGGGSGGGGSGGGGSEIVLTQSPGTLSLSPGERATLSCRASQSVSRSYLAWYQQKPGQAPRLLIIGASTRATGIPDRFSGSGSGTDFTLTISRLEPEDFAVYYCQQGQVIPPTFGQGTKVEIK
heavy 2: not shown
light: DIQMTQSPSSLSASVGDRVTITCRSSQSLVHSNGNTFLHWYQQKPGKAPKLLIYTVSNRFSGVPSRFSGSGSGTDFTLTISSLQPEDFATYFCSQTTHVPWTFGQGTKVEIKRTVAAPSVFIFPPSDEQLKSGTASVVCLLNNFYPREAKVQWKVDNALQSGNSQESVTEQDSKDSTYSLSSTLTLSKADYEKHKVYACEVTHQGLSSPVTKSFNRGEC
notes: 28H1 VH and VL fused to the C-termini of the knob and hole heavy chains; also called CD40 × FAP 2 + 1; huCD40-28H1

- EC50 [2]: 47.1 nM
- binding result [3]: binds
B3: P1AD4453 CD40 × FAP (28H1) (4 + 1) (bispecific antibody, human IgG1, kappa, L234A L235A)
heavy 1: not shown
heavy 2: EVQLVESGGGLVQPGGSLRLSCAASGYSFTGYYIHWVRQAPGKGLEWVARVIPNAGGTSYNQKFKGRFTLSVDNSKNTAYLQMNSLRAEDTAVYYCAREGIYWWGQGTLVTVSSASTKGPSVFPLAPSSKSTSGGTAALGCLVKDYFPEPVTVSWNSGALTSGVHTFPAVLQSSGLYSLSSVVTVPSSSLGTQTYICNVNHKPSNTKVDKKVEPKSCDGGGGSGGGGSEVQLVESGGGLVQPGGSLRLSCAASGYSFTGYYIHWVRQAPGKGLEWVARVIPNAGGTSYNQKFKGRFTLSVDNSKNTAYLQMNSLRAEDTAVYYCAREGIYWWGQGTLVTVSSASTKGPSVFPLAPSSKSTSGGTAALGCLVKDYFPEPVTVSWNSGALTSGVHTFPAVLQSSGLYSLSSVVTVPSSSLGTQTYICNVNHKPSNTKVDKKVEPKSCDKTHTCPPCPAPEAAGGPSVFLFPPKPKDTLMISRTPEVTCVVVDVSHEDPEVKFNWYVDGVEVHNAKTKPREEQYNSTYRVVSVLTVLHQDWLNGKEYKCKVSNKALGAPIEKTISKAKGQPREPQVCTLPPSRDELTKNQVSLSCAVKGFYPSDIAVEWESNGQPENNYKTTPPVLDSDGSFFLVSKLTVDKSRWQQGNVFSCSVMHEALHNHYTQKSLSLSPGGGGGSGGGGSGGGGSGGGGSEIVLTQSPGTLSLSPGERATLSCRASQSVSRSYLAWYQQKPGQAPRLLIIGASTRATGIPDRFSGSGSGTDFTLTISRLEPEDFAVYYCQQGQVIPPTFGQGTKVEIK
light: B2 light
notes: 28H1 VH and VL fused to the C-termini of the knob and hole heavy chains; also called CD40 × FAP 4 + 1; huCD40-28H1

- EC50 [2]: 3.65 nM
- EC50 (read off the curve) [3]: ~4 nM
B4: P1AA9663 CD40 × FAP (28H1) (2 + 2) (bispecific antibody, human IgG1, kappa, L234A L235A)
heavy: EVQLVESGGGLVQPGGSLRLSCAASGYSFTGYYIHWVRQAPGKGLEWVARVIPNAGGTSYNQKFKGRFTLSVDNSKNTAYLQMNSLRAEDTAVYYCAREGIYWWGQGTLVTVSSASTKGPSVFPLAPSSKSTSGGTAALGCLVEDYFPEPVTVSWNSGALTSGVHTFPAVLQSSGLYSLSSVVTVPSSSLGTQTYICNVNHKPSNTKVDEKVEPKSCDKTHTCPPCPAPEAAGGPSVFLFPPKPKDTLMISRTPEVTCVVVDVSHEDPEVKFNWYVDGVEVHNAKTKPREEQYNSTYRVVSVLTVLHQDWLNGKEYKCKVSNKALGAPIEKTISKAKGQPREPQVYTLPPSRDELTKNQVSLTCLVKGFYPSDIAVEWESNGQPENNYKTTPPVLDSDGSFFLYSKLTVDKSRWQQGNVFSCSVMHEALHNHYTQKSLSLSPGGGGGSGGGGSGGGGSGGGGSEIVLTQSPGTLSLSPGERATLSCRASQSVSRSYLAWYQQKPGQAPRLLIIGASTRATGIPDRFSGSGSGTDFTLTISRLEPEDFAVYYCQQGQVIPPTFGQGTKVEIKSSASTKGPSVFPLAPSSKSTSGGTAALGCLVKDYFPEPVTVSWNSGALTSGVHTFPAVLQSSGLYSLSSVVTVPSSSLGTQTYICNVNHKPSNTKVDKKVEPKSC
light 1: B2 light with E128R, Q129K
light 2: EVQLLESGGGLVQPGGSLRLSCAASGFTFSSHAMSWVRQAPGKGLEWVSAIWASGEQYYADSVKGRFTISRDNSKNTLYLQMNSLRAEDTAVYYCAKGWLGNFDYWGQGTLVTVSSASVAAPSVFIFPPSDEQLKSGTASVVCLLNNFYPREAKVQWKVDNALQSGNSQESVTEQDSKDSTYSLSSTLTLSKADYEKHKVYACEVTHQGLSSPVTKSFNRGEC
notes: bivalent for CD40 and for FAP; also called CD40 × FAP 2 + 2; huCD40-28H1

- Kd [1]: 0.08 nM
- koff [1]: 0.000172 s⁻¹
- kon [1]: 2.19e+06 M⁻¹ s⁻¹
B5: 4B9 IgG1 (antibody, V domains shown)
VH: EVQLLESGGGLVQPGGSLRLSCAASGFTFSSYAMSWVRQAPGKGLEWVSAIIGSGASTYYADSVKGRFTISRDNSKNTLYLQMNSLRAEDTAVYYCAKGWFGGFNYWGQGTLVTVSS
VL: EIVLTQSPGTLSLSPGERATLSCRASQSVTSSYLAWYQQKPGQAPRLLINVGSRRATGIPDRFSGSGSGTDFTLTISRLEPEDFAVYYCQQGIMLPPTFGQGTKVEIK
notes: IgG1; also called Control; FAP(4B9)
